In patent publication US20200010567A1 (NEURIMMUNE, published 2020):

Key:
GA20: H-(GA)20HHHHHH-NH2 = molecular target: T1, GA20: H-(GA)20HHHHHH-NH2 (C-terminal amide); test: indirect ELISA, coated His-tagged peptide
T1 peptide: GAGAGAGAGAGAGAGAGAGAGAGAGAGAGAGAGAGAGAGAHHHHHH
Excerpt: In brief, dipeptide repeat proteins were synthesized and purified by Schafer-N (Copenhagen, Denmark): GA₂₀: H-(GA)₂₀HHHHHH-NH₂; GA₁₀: H-(GA)₁₀HHHHHH-NH₂; GA₆: H-(GA)₆HHHHHH-NH₂; GA₅: H-(GA)₅HHHHHH-NH₂; GA₄: H-(GA)₄HHHHHH-NH₂; GA₃: H-(GA)₃HHHHHH-NH₂; GA₂: H-(GA)₂HHHHHH-NH₂; GP₂₀: H-(GP)₂₀HHHHHH-NH₂; GP₁₀: H-(GP)₁₀HHHHHH-NH₂; GP₆: H-(GP)₆HHHHHH-NH₂; GP₅: H-(GP)₅HHHHHH-NH₂; GP₄: H-(GP)₄HHHHHH-NH₂; GP₃: H-(GP)₃HHHHHH-NH₂; GP₂: H-(GP)₂HHHHHH-NH₂. GR₂₀: H-(GR)₂₀HHHHHH-NH₂; GR₁₀: H-(GR)₁₀HHHHHH-NH₂; GR₆: H-(GR)₆HHHHHH-NH₂; GR₅: H-(GR)₅HHHHHH-NH₂; GR₄: H-(GR)₄HHHHHH-NH₂; GR₃: H-(GR)₃HHHHHH-NH₂; GR₂: H-(GR)₂HHHHHH-NH₂; PA₂₀: H-(PA)₂₀HHHHHH-NH₂; PA₁₀: H-(PA)₁₀HHHHHH-NH₂; PA₆: H-(PA)₆HHHHHH-NH₂; PA₅: H-(PA)₅HHHHHH-NH₂; PA₄: H-(PA)₄HHHHHH-NH₂; PA₃: H-(PA)₃HHHHHH-NH₂; PA₂: H-(PA)₂HHHHHH-NH₂; PR₂₀: H-(PR)₂₀HHHHHH-NH₂; PR₁₀: H-(PR)₁₀HHHHHH-NH₂; PR₆: H-(PR)₆HHHHHH-NH₂; PR₅: H-(PR)₅HHHHHH-NH₂; PR₄: H-(PR)₄HHHHHH-NH₂; PR₃: H-(PR)₃HHHHHH-NH₂; PR₂: H-(PR)₂HHHHHH-NH₂. 96-well microplates (Corning Incorporated, Corning, USA) were coated with dipeptide repeat protein peptides at a concentration of 50 μg/ml in coating buffer (15 mM Na₂CO₃, 35 mM NaHCO₃, pH 9.42). Non-specific binding sites were blocked for 1 h at room temperature with PBS/0.1% Tween®-20 containing 2% BSA (Sigma-Aldrich, Buchs, Switzerland). Primary antibodies were diluted to the indicated concentrations and incubated 1 h at room temperature, followed by incubation with a donkey anti-human IgG Fcγ-specific antibody conjugated with HRP (Jackson ImmunoResearch Laboratories, Inc., West Grove, USA). Binding was determined by measurement of HRP activity in a standard colorimetric assay. EC₅₀ values were estimated by non-linear regression using GraphPad Prism software (San Diego, USA).

(PA)15: H-C(PA)15-OH = molecular target: T2, (PA)15: H-C(PA)15-OH; test: indirect ELISA, coated peptide
T2 construct: synthetic, not coupled to BSA; also called poly-PA DPR protein peptide
T2 peptide: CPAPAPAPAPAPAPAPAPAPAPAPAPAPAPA
Experimental: (§1) In brief, dipeptide repeat proteins were synthesized and purified by Schafer-N(Copenhagen, Denmark): (GA)₁₅: H-CHHHHHH(GA)₁₅-OH; (GP)₁₅: H-C(GP)₁₅-OH; (GR)₁₅: H-C(GR)₁₅-OH; (PA)₁₅: H-C(PA)₁₅-OH; (PR)₁₅: H—C(PR)₁₅-OH. 96-well microplates (Corning Incorporated, Corning, USA) were coated with dipeptide repeat protein peptides at a concentration of either 5 μg/ml or 20 μg/ml in coating buffer (15 mM Na₂CO₃, 35 mM NaHCO₃, pH 9.42). Non-specific binding sites were blocked for 1 h at room temperature with PBS/0.1% Tween®-20 containing 2% BSA (Sigma-Aldrich, Buchs, Switzerland). Primary antibodies were diluted to the indicated concentrations and incubated for 1 h at room temperature, followed by incubation with a donkey anti-human IgG Fcγ-specific antibody conjugated with HRP (Jackson ImmunoResearch Laboratories, Inc., West Grove, USA). Binding was determined by measurement of HRP activity in a standard colorimetric assay. EC₅₀ values were estimated by non-linear regression using GraphPad Prism software (San Diego, USA). The binding specificity and EC₅₀ of human-derived antibodies for C9orf72 dipeptide repeat protein peptides (GA)₁₅, (GP)₁₅, (GR)₁₅, (PA)₁₅ and (PR)₁₅ were determined by indirect ELISA.

(GR)15: H-C(GR)15-OH = molecular target: T3, (GR)15: H-C(GR)15-OH; test: indirect ELISA, coated peptide
T3 construct: synthetic, not coupled to BSA; also called poly-GR DPR protein peptide
T3 peptide: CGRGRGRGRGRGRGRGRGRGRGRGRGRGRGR
Experimental: as §1

(GP)15: H-C(GP)15-OH = molecular target: T4, (GP)15: H-C(GP)15-OH; test: indirect ELISA, coated peptide
T4 construct: synthetic, not coupled to BSA; also called poly-GP DPR protein peptide
T4 peptide: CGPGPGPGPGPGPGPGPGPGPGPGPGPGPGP
Experimental: as §1

(PR)15: H-C(PR)15-OH = molecular target: T5, (PR)15: H-C(PR)15-OH; test: indirect ELISA, coated peptide
T5 construct: synthetic, not coupled to BSA; also called poly-PR DPR protein peptide
T5 peptide: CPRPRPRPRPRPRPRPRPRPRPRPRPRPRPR
Experimental: as §1

Tau = Tau (UniProt P10636-8 1-441, limits assumed); test: indirect ELISA, coated protein
Chain of Tau (P10636 other isoform, or with tags, fused parts or gaps limits assumed): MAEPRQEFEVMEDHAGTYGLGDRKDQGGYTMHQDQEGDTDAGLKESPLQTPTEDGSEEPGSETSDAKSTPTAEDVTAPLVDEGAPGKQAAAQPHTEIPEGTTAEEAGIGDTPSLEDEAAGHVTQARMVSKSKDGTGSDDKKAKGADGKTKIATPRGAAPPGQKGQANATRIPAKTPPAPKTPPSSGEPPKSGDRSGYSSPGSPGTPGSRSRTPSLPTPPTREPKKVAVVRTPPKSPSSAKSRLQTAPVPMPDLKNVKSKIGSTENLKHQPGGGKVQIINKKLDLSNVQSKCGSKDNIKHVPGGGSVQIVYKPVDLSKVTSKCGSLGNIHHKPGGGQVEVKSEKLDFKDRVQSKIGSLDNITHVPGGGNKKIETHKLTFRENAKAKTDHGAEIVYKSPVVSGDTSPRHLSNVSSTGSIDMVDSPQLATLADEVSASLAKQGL
Experimental: (§2) 96-well microplates (Corning) were coated with different target proteins at a concentration of 1-10 μg/ml in coating buffer (15 mM Na₂CO₃, 35 mM NaHCO₃, pH 9.42). Non-specific binding sites were blocked for 1 h at RT with PBS/0.1% Tween®-20 containing 2% BSA (Sigma-Aldrich, Buchs, Switzerland). […] Binding was determined using donkey anti-human IgG Fcγ-specific antibody conjugated with HRP (Jackson ImmunoResearch Laboratories, Inc., West Grove, USA) followed by measurement of HRP activity in a standard colorimetric assay. Signals for target protein were calculated in fold increase above median.

[1] = molecular target: T6, transactive response DNA binding protein 43 (UniProt Q13148 1-414, limits assumed); test: indirect ELISA, coated protein
T6 construct: also called TDP-43
T6 sequence (Q13148 whole entry): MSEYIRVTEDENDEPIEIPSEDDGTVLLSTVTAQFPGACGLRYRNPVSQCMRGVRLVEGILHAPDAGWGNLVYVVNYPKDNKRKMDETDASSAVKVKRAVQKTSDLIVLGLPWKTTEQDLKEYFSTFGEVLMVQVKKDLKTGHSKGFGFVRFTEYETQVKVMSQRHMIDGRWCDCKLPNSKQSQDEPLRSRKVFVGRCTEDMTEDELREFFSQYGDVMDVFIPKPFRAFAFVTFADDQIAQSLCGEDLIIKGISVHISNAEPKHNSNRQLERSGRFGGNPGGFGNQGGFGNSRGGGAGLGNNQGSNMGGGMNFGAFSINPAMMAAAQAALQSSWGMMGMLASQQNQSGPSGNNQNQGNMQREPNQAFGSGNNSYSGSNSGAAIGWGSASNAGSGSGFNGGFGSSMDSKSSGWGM
Experimental: as §2

[2] = molecular target: T7, full-length amyloid precursor protein (UniProt P05067 18-770, limits assumed); test: indirect ELISA, coated protein
T7 construct: also called flAPP
T7 sequence (P05067 18-770 limits assumed): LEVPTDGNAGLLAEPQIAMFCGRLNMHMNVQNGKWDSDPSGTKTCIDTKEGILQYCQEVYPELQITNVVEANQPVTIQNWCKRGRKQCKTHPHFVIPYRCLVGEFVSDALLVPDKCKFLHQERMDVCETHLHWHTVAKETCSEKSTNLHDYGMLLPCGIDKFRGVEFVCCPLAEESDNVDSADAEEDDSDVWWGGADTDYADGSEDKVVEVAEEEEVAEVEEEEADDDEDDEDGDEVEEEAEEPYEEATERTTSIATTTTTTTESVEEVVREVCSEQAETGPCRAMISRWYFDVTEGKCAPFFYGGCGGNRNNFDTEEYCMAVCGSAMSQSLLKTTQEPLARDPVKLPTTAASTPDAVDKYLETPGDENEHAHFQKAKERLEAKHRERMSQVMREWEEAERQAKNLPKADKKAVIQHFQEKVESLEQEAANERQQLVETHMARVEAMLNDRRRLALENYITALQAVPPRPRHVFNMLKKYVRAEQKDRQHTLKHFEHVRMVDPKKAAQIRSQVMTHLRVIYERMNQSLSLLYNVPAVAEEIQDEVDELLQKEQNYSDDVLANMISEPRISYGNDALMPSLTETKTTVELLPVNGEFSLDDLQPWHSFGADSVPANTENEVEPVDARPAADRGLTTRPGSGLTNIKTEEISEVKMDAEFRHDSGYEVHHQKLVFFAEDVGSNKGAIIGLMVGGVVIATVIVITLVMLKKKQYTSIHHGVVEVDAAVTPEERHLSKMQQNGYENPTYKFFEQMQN
Experimental: as §2

transthyrethin = transthyrethin (UniProt P02766 21-147); test: indirect ELISA, coated protein
Experimental: as §2

B1: NI-308.18F7 (antibody, V domains shown)
VH: QVQLQESGPGLVKPSETLSVTCTVSGGSINDYYWNWIRQPAGKGLEWIGRIYASGTINYNPSLQSRVTMSIDTSKNQFSLDLISVSAADTAVYYCARWGQVVGDYYYGMDVWGQGTTVTVSS
VL: EIVLTQSPLSLSVTPGEPASISCKSSQSLQHTNGYNYLDWYLLKPGQSPQLLIFLTSNRASGVPDRFSGSGSGTNFTLKISRVEAEDVGVYYCMEGIQLWTFGQGTKLEIK
notes: Recombinant complete human IgG1, kappa
**Q.** With B1 as the binder, how does the EC50 (GA20: H-(GA)20HHHHHH-NH2) read?
**A.** Its EC50 is 0.83 nM.

**Q.** Does B1 bind ((PA)15: H-C(PA)15-OH)?
**A.** Result: no binding

**Q.** Does B1 bind ((GR)15: H-C(GR)15-OH)?
**A.** Result: no binding

**Q.** Does B1 bind ((GP)15: H-C(GP)15-OH)?
**A.** Result: no binding

**Q.** Does B1 bind ((PR)15: H-C(PR)15-OH)?
**A.** Result: no binding

**Q.** Does B1 bind (Tau)?
**A.** Result: no binding (tested: 20 nM)

**Q.** Does B1 bind [1]?
**A.** Result: no binding (tested: 20 nM)

**Q.** Does B1 bind [2]?
**A.** Result: no binding (tested: 20 nM)

**Q.** Does B1 bind (transthyrethin)?
**A.** Result: no binding (tested: 20 nM)
